How the values were obtained:
Experiment in all cases: ITC; VP-ITC or ITC200; 25°C; ITC buffer (50 mM Tris/HCl, pH 7.5, 150 mM NaCl, 2 mM DTT, 5% glycerol); SUMOs titrated into a solution of the RNF4 construct or peptide (legends of Figures 1B, 2B); 20–30 injections up to 2–3-fold molar excess; values averaged from two to six titrations
[1] = target: RNF4 1–125 (RNF4-SIM domain, wt) (human) (UniProt P78317)
[2] = target: RNF4-SIM2/3 peptide (human)
[3] = target: synthetic tandem PIAS1 SIM peptide

RNF4 1–125 (RNF4-SIM domain, wt) (human), sequence (P78317 1-125): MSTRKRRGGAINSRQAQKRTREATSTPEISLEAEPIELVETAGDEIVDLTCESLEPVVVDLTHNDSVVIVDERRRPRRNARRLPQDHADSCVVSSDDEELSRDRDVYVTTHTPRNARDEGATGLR
RNF4-SIM2/3 peptide (human), sequence (P78317 43-65): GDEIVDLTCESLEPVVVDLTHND

| Kd [1] | Kd [2] | Kd [3] | Substance |
| --- | --- | --- | --- |
| 17 µM | – | – | linear di-SUMO1 (2×SUMO1-ΔN15) (from UniProt P63165 16-101; P63165 16-101) |
| 14 µM | 8.5 µM | 3.8 µM | linear di-SUMO2 (2×SUMO2-ΔN11) (from UniProt P61956 12-95; P61956 12-95) |
| 4.3 µM | – | – | linear tetra-SUMO1 (4×SUMO1-ΔN15) (from UniProt P63165 16-101; P63165 16-101; P63165 16-101; P63165 16-101) |
| 1.6 µM | – | – | linear tetra-SUMO2 (4×SUMO2-ΔN11) (from UniProt P61956 12-95; P61956 12-95; P61956 12-95; P61956 12-95) |

Source: PMC3901395, “Multivalent interactions of the SUMO-interaction motifs in RING finger protein 4 determine the specificity for chains of the SUMO” (Biochemical Journal, 2013)
